Assay results: publication PMC10403255, “Two RNA-binding proteins mediate the sorting of miR223 from mitochondria into exosomes”

Assays:
Test in all cases: EMSA; 25 mM Tris pH 8.0, 100 mM KCl, 1.5 mM MgCl2, 0.2 mM EGTA, 0.05% Nonidet P-40, 1 mM DTT, 5% glycerol, 50 ug/ml heparin; 30 C 30 min, then ice 10 min; 1 nM RNA; 6% native PAGE in cold room
YBAP1 = YBAP1 (UniProt Q07021 74-282); settings: protein: recombinant; tags: His6-MBP; chain copies: 3; label: 5'-IRD800CWN
YBX1(F85A) = YBX1(F85A) (UniProt P67809 1-324, F85A); settings: protein: recombinant; tags: His6-MBP; label: 5'-IRD800CWN
YBX1(F85A), sequence (P67809 whole entry F85A): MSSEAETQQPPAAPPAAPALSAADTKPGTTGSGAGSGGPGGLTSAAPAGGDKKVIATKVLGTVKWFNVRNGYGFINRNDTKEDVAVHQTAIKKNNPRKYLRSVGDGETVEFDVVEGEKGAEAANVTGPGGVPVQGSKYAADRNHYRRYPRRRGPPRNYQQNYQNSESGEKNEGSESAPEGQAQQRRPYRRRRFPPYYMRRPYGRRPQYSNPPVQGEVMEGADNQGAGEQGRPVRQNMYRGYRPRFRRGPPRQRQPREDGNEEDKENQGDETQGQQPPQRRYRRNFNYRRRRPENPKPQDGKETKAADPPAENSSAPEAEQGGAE

YBX1 [1] = biological target: T1, YBX1 (UniProt P67809 1-324); settings: protein: recombinant; tags: His6-MBP (N-terminal vector tag); label: 5'-IRD800CWN
T1 sequence (P67809 whole entry): as the sequence (P67809 whole entry F85A) above, with A85F counted along it

YBX1 [2] = biological target: T1, YBX1; settings: protein: recombinant; tags: His6-MBP (N-terminal vector tag); label: 5'-IRD800CWN; remark: listed apart in the source
YBX1 [3] = biological target: T1, YBX1; settings: protein: recombinant; tags: His6-MBP (N-terminal vector tag); label: 5'-IRD800CWN; remark: listed apart in the source

YBAP1, sequence (Q07021 74-282): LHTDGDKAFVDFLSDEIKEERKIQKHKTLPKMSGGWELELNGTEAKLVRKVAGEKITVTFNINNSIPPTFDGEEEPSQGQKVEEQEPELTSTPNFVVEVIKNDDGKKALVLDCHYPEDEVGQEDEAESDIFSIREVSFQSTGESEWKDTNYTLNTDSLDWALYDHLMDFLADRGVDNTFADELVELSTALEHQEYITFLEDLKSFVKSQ

Row | Binder | binding result (YBAP1) | binding result (YBX1(F85A)) | Kd (YBX1 [1]) [nM] | binding signal (YBX1 [2]) [fold weaker than miR223] | binding signal (YBX1 [3])
1 | UGUCAGUUUGUCAAAUACCCCA (ssRNA) [miR223 (hsa-miR-223-3p)] | binds | no binding | 4.2 |  | 
2 | UGAUAUGUUUGAUAUAUUAGGU (ssRNA) [miR190 (hsa-miR-190-5p)] | no binding |  |  | ~140 | 
3 | UGAGACAUUGUCAAAUACCCCA (ssRNA) [miR223mut] |  |  |  |  | ~27 fold weaker than miR223
4 | UGUCAGUUUUGAUAUAUUAGGU (ssRNA) [miR190sort] |  |  |  |  | ~8 fold stronger than miR190
